This note sets out measurements from patent CN115124615A (SICHUAN YIAI TECH CO LTD, dated 2022).

One may read the Kd as a measure of binding affinity in units of concentration.

B1: 纳米抗体N5 (VHH)
VHH: QVQLVESGGGPVQAGGSLRLSCAAAGSALSIYRMGWYRQAPGKQRELVAFITTGGSTDHIDSVKGRFTISRDNAKNTVYLQMNSLKPEDTAVYYCNSDPPWVLGADWGQGTQVTVSS
notes: also called R5
B2: 纳米抗体N3 (VHH)
VHH: QVQLVESGGGLVQAGGSLRLSCRASGSVFTMGWHRQAPGNGREFVASITRDGNANYKGSVKDRFTISRDNGKNTLYLQMNSLKPEDTAVYYCIDYNTSTWGQGTQVTVSS
notes: also called R3
B3: 纳米抗体N22 (VHH)
VHH: QVQLVESGGGLVQAGGSLRLSCRASGTVFNMGWHRQAPGQQREFVASISHDGRTNYAGSVKGRFTISRDNTKNTLYLQMNSLKPEDTAVYYCIDYHTSLWGQGTQVTVSS
notes: also called R22
B4: 纳米抗体N1 (VHH)
VHH: QVQLVESGGGLVQPGGSLRLSCTASGSGFSNNNMAWYRQAPGKAREWVAAVSSSGNTNYAASAKGRFTISRDNAKNTVYLQMSSLKPEDTAVYYCYAVAPEGGDSWGQGTQVTVSS
notes: also called R1
B5: 纳米抗体N10 (VHH)
VHH: B4 VHH with Q13E, P14A, T23A, S27I, G28I, N31I, A44P, A63V, V78L
notes: also called R10

Substitutions are numbered along the chain they refer to.

One assay has as its target T1, SARS-CoV2病毒表面SPIKE蛋白的RBD结构域 (SARS-CoV-2, UniProt P0DTC2 319-541).
T1 construct: domain: RBD结构域
Kind of assay: SPR (Biacore). In general terms: In SPR one partner is held on a chip, and binding of the other changes the refractive index at the surface.
For the molecule B1, binding was put at a Kd of 5.3 nM.
The molecule B2 registered a Kd of 1.4 nM.
For B3, the Kd worked out at 0.19 nM.
Same read-out and setting: to B4 belongs 0.56 nM; to B5, 0.59 nM.

The next assay addresses 新冠病毒刺突蛋白(S蛋白) (SARS-CoV-2, UniProt P0DTC2 14-1213). Kind of assay: cell-based or functional assay.
Consider B1, for which the “假病毒中和 IC50” value was 0.023 µg/mL.
